Measurements: the supplement of paper PMC5998384

Key:
HeLa Kyoto [1] = test: solubility change mitosis vs G1/S (difference of NP-40 vs SDS log2 ratios) (log2 ratio difference); higher = more soluble in mitosis
HeLa Kyoto [2] = test: thermal stability score vs G1/S (z-score of summed log2 fold changes over temperatures); higher = more thermally stable than in G1/S
HeLa Kyoto [3] = test: melting temperature (median over replicates), in situ; higher = more thermally stable
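Throughout, for melting temperature (median over replicates), in situ: HeLa Kyoto cells synchronized by double thymidine or nocodazole block, proteins quantified by TMT10plex mass spectrometry, three independent biological replicates.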
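Throughout, for solubility change mitosis vs G1/S (difference of NP-40 vs SDS log2 ratios): synchronized HeLa Kyoto cells (double thymidine block for G1/S, nocodazole release for mitosis), protein amounts in NP-40 versus SDS lysates quantified by mass spectrometry, three biological replicates.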
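Throughout, for thermal stability score vs G1/S (z-score of summed log2 fold changes over temperatures): synchronized HeLa Kyoto cells, proteins quantified by TMT10plex mass spectrometry, three biological replicates, mitosis taken 0.5 h after nocodazole release, G1/S directly after double thymidine block.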

ABCE1
solubility change mitosis (log2) (HeLa Kyoto [1]): -0.151

ACTR2
solubility change mitosis (log2) (HeLa Kyoto [1]): -0.105

AKR1B1
solubility change mitosis (log2) (HeLa Kyoto [1]): -0.0682

ATP1A1
solubility change mitosis (log2) (HeLa Kyoto [1]): -0.0968

ATP1B1
solubility change mitosis (log2) (HeLa Kyoto [1]): -0.0049

BRD4
solubility change mitosis (log2) (HeLa Kyoto [1]): 0.176

CDC73
solubility change mitosis (log2) (HeLa Kyoto [1]): -0.0838

CLIC1
solubility change mitosis (log2) (HeLa Kyoto [1]): 0.0655

CTSB
solubility change mitosis (log2) (HeLa Kyoto [1]): -0.123

DLG1
solubility change mitosis (log2) (HeLa Kyoto [1]): -0.0806

EIF6
solubility change mitosis (log2) (HeLa Kyoto [1]): 0.0864

GTPBP4
solubility change mitosis (log2) (HeLa Kyoto [1]): 0.746

HAGH
solubility change mitosis (log2) (HeLa Kyoto [1]): 0.0733

HMGN2
solubility change mitosis (log2) (HeLa Kyoto [1]): 1.68

ICT1
solubility change mitosis (log2) (HeLa Kyoto [1]): 0.134

ITPA
solubility change mitosis (log2) (HeLa Kyoto [1]): 0.0757

IWS1
solubility change mitosis (log2) (HeLa Kyoto [1]): 0.062

KDM1A
solubility change mitosis (log2) (HeLa Kyoto [1]): -0.0676

LAMTOR5
solubility change mitosis (log2) (HeLa Kyoto [1]): -0.0394

MGGSGSRLSKELLAEYQDLTFLTKQEILLAHRRFCELLPQEQRSVESSLRAQVPFEQILSLPELKANPFKERICRVFSTSPAKDSLSFEDFLDLLSVFSDTATPDIKSHYAFRIFDFDDDGTLNREDLSRLVNCLTGEGEDTRLSASEMKQLIDNILEESDIDRDGTINLSEFQHVISRSPDFASSFKIVL [CIB1]
solubility change mitosis (log2) (HeLa Kyoto [1]): -0.0256

MRPL15
solubility change mitosis (log2) (HeLa Kyoto [1]): 0.041

MRPL16
solubility change mitosis (log2) (HeLa Kyoto [1]): 0.059

MRPL17
solubility change mitosis (log2) (HeLa Kyoto [1]): -0.0699

MRPL19
solubility change mitosis (log2) (HeLa Kyoto [1]): 0.048

MRPL21
solubility change mitosis (log2) (HeLa Kyoto [1]): 0.00832

MRPL22
solubility change mitosis (log2) (HeLa Kyoto [1]): -0.00907

MRPL38
solubility change mitosis (log2) (HeLa Kyoto [1]): -0.0167

MRPL42
solubility change mitosis (log2) (HeLa Kyoto [1]): 0.296

MRPL44
solubility change mitosis (log2) (HeLa Kyoto [1]): -0.0742

MRPL49
solubility change mitosis (log2) (HeLa Kyoto [1]): 0.257

MRPL50
solubility change mitosis (log2) (HeLa Kyoto [1]): 0.178

MRPL55
solubility change mitosis (log2) (HeLa Kyoto [1]): 0.249

MRPL57
solubility change mitosis (log2) (HeLa Kyoto [1]): -0.109

MRPS2
solubility change mitosis (log2) (HeLa Kyoto [1]): 0.0234

MRPS12
solubility change mitosis (log2) (HeLa Kyoto [1]): 0.0958

MRPS18A
solubility change mitosis (log2) (HeLa Kyoto [1]): 0.0389

MRPS26
solubility change mitosis (log2) (HeLa Kyoto [1]): 0.0692

MRPS28
solubility change mitosis (log2) (HeLa Kyoto [1]): 0.31

MRTO4
solubility change mitosis (log2) (HeLa Kyoto [1]): 0.303

MTQNKLKLCSKANVYTEVPDGGWGWAVAVSFFFVEVFTYGIIKTFGVFFNDLMDSFNESNSRISWIISICVFVLTFSAPLATVLSNRFGHRLVVMLGGLLVSTGMVAASFSQEVSHMYVAIGIISGLGYCFSFLPTVTILSQYFGKRRSIVTAVASTGECFAVFAFAPAIMALKERIGWRYSLLFVGLLQLNIVIFGALLRPIFIRGPASPKIVIQENRKEAQYMLENEKTRTSIDSIDSGVELTTSPKNVPTHTNLELEPKADMQQVLVKTSPRPSEKKAPLLDFSILKEKSFICYALFGLFATLGFFAPSLYIIPLGISLGIDQDRAAFLLSTMAIAEVFGRIGAGFVLNREPIRKIYIELICVILLTVSLFAFTFATEFWGLMSCSIFFGFMVGTIGGTHIPLLAEDDVVGIEKMSSAAGVYIFIQSIAGLAGPPLAGLLVDQSKIYSRAFYSCAAGMALAAVCLALVRPCKMGLCQHHHSGETKVVSHRGKTLQDIPEDFLEMDLAKNEHRVHVQMEPV [SLC16A6]
thermal stability score (HeLa Kyoto [2]; cell cycle stage: early G1 (4.5 h after nocodazole release)): -2.68
thermal stability score (HeLa Kyoto [2]; cell cycle stage: mitosis): -4.18
melting temperature (HeLa Kyoto [3]; cell cycle stage: G1/S): 54.8 °C
melting temperature (HeLa Kyoto [3]; cell cycle stage: mitosis): 54.4 °C

PACSIN3
solubility change mitosis (log2) (HeLa Kyoto [1]): 0.0183

PAF1
solubility change mitosis (log2) (HeLa Kyoto [1]): -0.0983

PEX5
solubility change mitosis (log2) (HeLa Kyoto [1]): -0.137

POFUT1
solubility change mitosis (log2) (HeLa Kyoto [1]): -0.148

POLR2H
solubility change mitosis (log2) (HeLa Kyoto [1]): -0.00215

POLR2I
solubility change mitosis (log2) (HeLa Kyoto [1]): 0.429

PPIA
solubility change mitosis (log2) (HeLa Kyoto [1]): -0.0495

PPP2R5C
solubility change mitosis (log2) (HeLa Kyoto [1]): -0.158

PRG4
solubility change mitosis (log2) (HeLa Kyoto [1]): 0.251

PTDSS1
solubility change mitosis (log2) (HeLa Kyoto [1]): 0.124

RNF167
solubility change mitosis (log2) (HeLa Kyoto [1]): -0.0145

RPL7L1
solubility change mitosis (log2) (HeLa Kyoto [1]): 1.18
